Assay results published in patent US20260265321A1, “PEPTIDE AND POLYPEPTIDE INHIBITING THE NF-KB SIGNALING PATHWAY” (Centre National de la Recherche Scientifique, priority 2023, published 2026).
Values belong to the binder of their own block, whether it stands above or below them.

B1: G1-IKKα, full-length wt IKKα fused to the Gluc1 fragment (enzyme, human, UniProt O15111 1-745, looked up)
chain: MERPPGLRPGAGGPWEMRERLGTGGFGNVCLYQHRELDLKIAIKSCRLELSTKNRERWCHEIQIMKKLNHANVVKACDVPEELNILIHDVPLLAMEYCSGGDLRKLLNKPENCCGLKESQILSLLSDIGSGIRYLHENKIIHRDLKPENIVLQDVGGKIIHKIIDLGYAKDVDQGSLCTSFVGTLQYLAPELFENKPYTATVDYWSFGTMVFECIAGYRPFLHHLQPFTWHEKIKKKDPKCIFACEEMSGEVRFSSHLPQPNSLCSLVVEPMENWLQLMLNWDPQQRGGPVDLTLKQPRCFVLMDHILNLKIVHILNMTSAKIISFLLPPDESLHSLQSRIERETGINTGSQELLSETGISLDPRKPASQCVLDGVRGCDSYMVYLFDKSKTVYEGPFASRSLSDCVNYIVQDSKIQLPIIQLRKVWAEAVHYVSGLKEDYSRLFQGQRAAMLSLLRYNANLTKMKNTLISASQQLKAKLEFFHKSIQLDLERYSEQMTYGISSEKMLKAWKEMEEKAIHYAEVGVIGYLEDQIMSLHAEIMELQKSPYGRRQGDLMESLEQRAIDLYKQLKHRPSDHSYSDSTEMVKIIVHTVQSQDRVLKELFGHLSKLLGCKQKIIDLLPKVEVALSNIKEADNTVMFMQGKRQKEIWHLLKIACTQSSARSLVGSSLEGAVTPQTSAWLPPTSAEHDHSLSCVVTPQDGETSAQMIEENLNCLGHLSTIIHEANEEQGNSMMNLDWSWLTE
notes: Expressed in HEK293T cells for GPCA; full-length; also called Gluc1-IKKα; not shown: Gluc1 fragment of Gaussia princeps luciferase and flexible 20 amino acid linker, N-terminal

What was measured:
[1] = biological target: T1, G2-p100 1-852 (UniProt Q00653 1-852); test: GPCA (Gaussia princeps protein complementation assay), G1-IKKα FL with G2-p100 constructs, NLR
T1 construct: range 1-852; not shown: Gluc2 fragment of Gaussia princeps luciferase and flexible 20 amino acid linker, N-terminal
T1 sequence (looked up): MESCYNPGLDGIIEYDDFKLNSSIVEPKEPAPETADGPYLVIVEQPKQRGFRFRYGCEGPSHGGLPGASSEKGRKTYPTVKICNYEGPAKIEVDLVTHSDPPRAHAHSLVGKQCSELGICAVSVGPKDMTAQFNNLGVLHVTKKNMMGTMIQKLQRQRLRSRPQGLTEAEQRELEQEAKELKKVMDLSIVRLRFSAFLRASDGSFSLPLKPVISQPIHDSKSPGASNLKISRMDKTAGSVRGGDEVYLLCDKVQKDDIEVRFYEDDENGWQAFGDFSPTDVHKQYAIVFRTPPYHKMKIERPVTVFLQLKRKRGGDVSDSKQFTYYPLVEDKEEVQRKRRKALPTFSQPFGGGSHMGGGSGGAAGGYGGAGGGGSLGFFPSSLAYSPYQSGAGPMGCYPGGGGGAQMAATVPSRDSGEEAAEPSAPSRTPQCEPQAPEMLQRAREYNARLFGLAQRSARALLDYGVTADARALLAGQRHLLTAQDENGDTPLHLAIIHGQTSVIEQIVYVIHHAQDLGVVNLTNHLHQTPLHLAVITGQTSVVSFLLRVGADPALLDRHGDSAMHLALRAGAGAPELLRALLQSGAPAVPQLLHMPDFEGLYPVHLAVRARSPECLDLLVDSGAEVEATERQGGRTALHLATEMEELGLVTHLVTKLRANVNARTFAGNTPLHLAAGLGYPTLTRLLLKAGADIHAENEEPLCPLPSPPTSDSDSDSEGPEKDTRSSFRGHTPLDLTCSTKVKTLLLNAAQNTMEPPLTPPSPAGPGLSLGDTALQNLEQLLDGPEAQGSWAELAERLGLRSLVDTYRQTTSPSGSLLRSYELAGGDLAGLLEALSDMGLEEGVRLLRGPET
Procedure: (§1) HEK293T cells were transfected using the reverse transfection method. Transfection mixes containing 100 ng of pSPICA-N2 and 100 ng of pSPICA-N1 plasmids expressing test proteins plus JetPEI® (Polyplus transfection) were dispensed in white 96-well plates. HEK293T cells were then seeded on the DNA mixes at a concentration of 4.2×10^4 cells per well. 48 hours after transfection, cells were washed with 50 μl of PBS and lysed with 40 μl of Renilla lysis buffer (Promega, E2820) for 30 minutes with agitation. Gaussia princeps luciferase enzymatic activity was measured using a Berthold Centro LB960 luminometer by injecting 50 μl per well of luciferase substrate reagent (Promega, E2820) and counting luminescence for 10 seconds. Results are expressed as a fold change normalized over the sum of controls, specified herein as normalized luminescence ratio (NLR) 29. For a given protein pair A/B, NLR=(Gluc1-A+Gluc2-B)/[(Gluc1-A+Gluc2)+(Gluc1+Gluc2-B)]. All interactions were measured in three independent experiments, with each experiment being carried out in triplicate. The expression levels of Gluc1- and Gluc2-fused proteins were checked by Western blotting. 24 hours post-transfection, HEK293T cells were collected, lysed by incubation on ice and centrifuged. Aliquots of cleared supernatants were loaded onto an 10% SDS-PAGE gel.

[2] = biological target: T2, IKKα(10-667) S176E/S180E homodimer, 6×His tag removed (human, UniProt O15111 10-667); test: ITC
T2 construct: also called purified IKKα
T2 sequence (looked up): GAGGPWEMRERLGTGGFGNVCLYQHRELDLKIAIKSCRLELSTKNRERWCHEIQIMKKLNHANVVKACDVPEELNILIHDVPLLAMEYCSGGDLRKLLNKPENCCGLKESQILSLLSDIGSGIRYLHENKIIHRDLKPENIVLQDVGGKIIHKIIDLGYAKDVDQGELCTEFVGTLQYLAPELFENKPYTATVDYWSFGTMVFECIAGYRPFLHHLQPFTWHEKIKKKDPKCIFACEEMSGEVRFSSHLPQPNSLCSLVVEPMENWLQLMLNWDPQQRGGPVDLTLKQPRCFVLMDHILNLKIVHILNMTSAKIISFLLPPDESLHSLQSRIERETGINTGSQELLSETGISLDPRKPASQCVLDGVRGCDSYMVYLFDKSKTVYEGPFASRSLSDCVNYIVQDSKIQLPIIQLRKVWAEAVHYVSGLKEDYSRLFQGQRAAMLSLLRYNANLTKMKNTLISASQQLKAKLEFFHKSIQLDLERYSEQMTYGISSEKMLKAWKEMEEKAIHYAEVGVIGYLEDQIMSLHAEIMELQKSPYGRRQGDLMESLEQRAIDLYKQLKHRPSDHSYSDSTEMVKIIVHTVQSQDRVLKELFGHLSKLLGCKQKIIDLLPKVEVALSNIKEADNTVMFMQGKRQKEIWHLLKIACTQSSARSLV
Procedure: (§2) All experiments were performed in ITC buffer (20 mM HEPES pH 8.0, 150 mM NaCl, 1 mM TCEP) unless otherwise stated. […] Just before the ITC experiments, IKKα or IKKβ samples were concentrated, incubated at room temperature for 30 minutes and centrifuged at 11000 g to remove eventual precipitate. The final concentrations of IKKα and IKKβ in the sample cell varied between 22 and 50 μM depending on the measurement. […] The concentration of peptides in the syringe varied between 220 and 975 μM depending on the measurement.
(§3) All ITC experiments were performed at 25° C. The data were fitted to a 1:1 binding model. […] All data were processed using NITPIC software and global fitting of two datasets was carried out using SEDPHAD.

[3] = biological target: T3, IKKβ(1-669) S177E/S181E homodimer, 6×His tag removed (human, UniProt O14920 1-669); test: ITC
T3 sequence (looked up): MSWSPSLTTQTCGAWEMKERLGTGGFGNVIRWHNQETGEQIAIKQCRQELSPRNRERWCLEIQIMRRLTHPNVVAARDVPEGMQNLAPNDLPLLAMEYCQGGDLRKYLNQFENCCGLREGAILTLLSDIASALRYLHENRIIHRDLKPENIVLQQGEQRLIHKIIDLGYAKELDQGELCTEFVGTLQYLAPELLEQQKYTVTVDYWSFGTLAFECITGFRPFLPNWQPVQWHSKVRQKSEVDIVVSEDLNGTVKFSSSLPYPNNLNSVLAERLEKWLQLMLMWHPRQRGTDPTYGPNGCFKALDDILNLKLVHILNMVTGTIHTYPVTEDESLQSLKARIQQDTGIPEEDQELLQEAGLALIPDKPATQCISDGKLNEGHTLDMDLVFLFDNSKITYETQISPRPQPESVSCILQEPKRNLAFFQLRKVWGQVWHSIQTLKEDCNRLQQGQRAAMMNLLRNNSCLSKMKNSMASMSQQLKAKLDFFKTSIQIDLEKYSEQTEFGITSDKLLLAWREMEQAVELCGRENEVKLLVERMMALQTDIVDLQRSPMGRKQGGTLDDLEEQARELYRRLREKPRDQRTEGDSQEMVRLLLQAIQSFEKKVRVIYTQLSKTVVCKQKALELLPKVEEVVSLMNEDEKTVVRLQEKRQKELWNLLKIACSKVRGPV
Procedure: as §2, §3

[4] = biological target: T2, IKKα(10-667) S176E/S180E homodimer, …; test: ITC, 25 °C, synthetic peptide into IKK homodimer, 1:1 model
Procedure: as §2, §3

[5] = biological target: T3, IKKβ(1-669) S177E/S181E homodimer, …; test: as above
Procedure: as §2, §3

[6] = biological target: B1; test: GPCA (Gaussia princeps protein complementation assay), G1-IKKα FL with G2-p100 constructs, NLR
Procedure: as §1

Binder: B1
binding result [1]: binds

fold enhancement of affinity against IκBα pep wt [2]: 25 fold
fold enhancement of affinity against IκBα pep wt [3]: 15 fold
Kd [4]: 350 nM
N (binding stoichiometry) [4]: 0.65
TΔS [4]: -4.71 kcal/mol
ΔG [4]: -8.8 kcal/mol
ΔH [4]: -13.5 kcal/mol
Kd [5]: 2600 nM
N (binding stoichiometry) [5]: 0.63
TΔS [5]: -4.59 kcal/mol
ΔG [5]: -7.61 kcal/mol
ΔH [5]: -12.2 kcal/mol
B2: synthetic IκBα pep C308L (peptide)
peptide: EFTEDELPYDDLVFGGQRLTL
notes: also called C308L IκBα pep; IkBα pep C308L

binding result [6]: binds
B3: FL YD/SS (other)
chain: MESCYNPGLDGIIESDSFKLNSSIVEPKEPAPETADGPYLVIVEQPKQRGFRFRYGCEGPSHGGLPGASSEKGRKTYPTVKICNYEGPAKIEVDLVTHSDPPRAHAHSLVGKQCSELGICAVSVGPKDMTAQFNNLGVLHVTKKNMMGTMIQKLQRQRLRSRPQGLTEAEQRELEQEAKELKKVMDLSIVRLRFSAFLRASDGSFSLPLKPVISQPIHDSKSPGASNLKISRMDKTAGSVRGGDEVYLLCDKVQKDDIEVRFYEDDENGWQAFGDFSPTDVHKQYAIVFRTPPYHKMKIERPVTVFLQLKRKRGGDVSDSKQFTYYPLVEDKEEVQRKRRKALPTFSQPFGGGSHMGGGSGGAAGGYGGAGGGGSLGFFPSSLAYSPYQSGAGPMGCYPGGGGGAQMAATVPSRDSGEEAAEPSAPSRTPQCEPQAPEMLQRAREYNARLFGLAQRSARALLDYGVTADARALLAGQRHLLTAQDENGDTPLHLAIIHGQTSVIEQIVYVIHHAQDLGVVNLTNHLHQTPLHLAVITGQTSVVSFLLRVGADPALLDRHGDSAMHLALRAGAGAPELLRALLQSGAPAVPQLLHMPDFEGLYPVHLAVRARSPECLDLLVDSGAEVEATERQGGRTALHLATEMEELGLVTHLVTKLRANVNARTFAGNTPLHLAAGLGYPTLTRLLLKAGADIHAENEEPLCPLPSPPTSDSDSDSEGPEKDTRSSFRGHTPLDLTCSTKVKTLLLNAAQNTMEPPLTPPSPAGPGLSLGDTALQNLEQLLDGPEAQGSWAELAERLGLRSLVDTYRQTTSPSGSLLRSYELAGGDLAGLLEALSDMGLEEGVRLLRGPETRDKLPSTAEVKEDSAYGSQSVEQEAEKLGPPPEPPGGLCHGHPQPQVH
notes: also called G2-p100 FL YD/SS; G2-p100 FL Y15S/D17S; not shown: N-terminal Gluc2 fragment of Gaussia princeps luciferase and the flexible 20 amino acid linker (pSPICA-N2)
